Measurements reported in PMC11739670.
Values joined by “and” are separate entries in the source; they are usually repeats but may differ in a detail not shown here. Equal entries are not always repeated.

How the values were obtained:
[1] = target: HLA-A*03:01 with peptide […]; assay: SPR
[2] = target: HLA-A*24:02 peptide-MHC class I (biotinylated pMHCI); assay: SPR; biotinylated ligands (pMHCI, MR1, CD1) captured on streptavidin coupled to a CM5 chip; serial dilution of each CD8-Fc fusion injected; steady-state responses, 1:1 Langmuir fit; BIAcore T200, 25°C, PBS with 0.005% Tween 20
[3] = target: MHCI-related protein 1 (MR1) with β-2 microglobulin, biotinylated, loaded with model ligands (UniProt Q95460); assay: as above
[4] = target: MHCI-related protein 1 (MR1) with β2m, loaded with 5-formyl salicylic acid (human) (UniProt Q95460); assay: SPR; BIAcore T200, CM5 chip with streptavidin; biotinylated pMHCI, MR1 or CD1 captured; serial dilution of CD8-Fc fusion injected; 25°C, PBS with 0.005% Tween 20; steady-state responses, 1:1 Langmuir fit
[5] = target: MHCI-related protein 1 (MR1) with β2m, loaded with 5-(2-oxopropylideneamino)-6-d-ribitylaminouracil (human) (UniProt Q95460); assay: as above
[6] = target: MHCI-related protein 1 (MR1) with β2m, loaded with 6-formylpterin (human) (UniProt Q95460); assay: as above

Kd [3] [µM]	Kd [4]	Kd [5]	Kd [6]	Substance	Kd [1] [µM]	Kd [2] [µM]
–	–	–	–	soluble human CD8αβ-Fc heterodimer (from UniProt P01732 22-182; P10966 22-170) (Fc fusion)	127	230
250	222 µM and 236 µM	248 µM and 274 µM	248 µM and 280 µM	soluble human CD8αα-Fc homodimer (from UniProt P01732 22-182) (Fc fusion)	–	–
